Measurements as given in patent US20240307439A1 (ARCELLX, published 2024).

Tests used:
BCMA-binding CAR (bc40) = target: T1, BCMA-binding CAR (bc40); assay: flow cytometry, CAR-transduced Jurkat cells incubated with 0.5 µg Adapter, stained with anti-HIS PE
T1 construct: D domain CAR on Jurkat reporter cells or T cells; The entry includes signal peptide and FLAG tag; also called BCMA-specific D domain CAR; CTsp-Flag-GSlinker-bc40-GSlinker-CD8H-TM-41BB-CD3ζ

CD123-Fc = target: T2, CD123-Fc (Homo sapiens (Human), UniProt P26951 19-305); assay: flow cytometry, Adapter held on af03-CAR Jurkat cells, CD123-Fc detected with Anti-Fc A488
T2 construct: not shown: Fc part not described
T2 sequence: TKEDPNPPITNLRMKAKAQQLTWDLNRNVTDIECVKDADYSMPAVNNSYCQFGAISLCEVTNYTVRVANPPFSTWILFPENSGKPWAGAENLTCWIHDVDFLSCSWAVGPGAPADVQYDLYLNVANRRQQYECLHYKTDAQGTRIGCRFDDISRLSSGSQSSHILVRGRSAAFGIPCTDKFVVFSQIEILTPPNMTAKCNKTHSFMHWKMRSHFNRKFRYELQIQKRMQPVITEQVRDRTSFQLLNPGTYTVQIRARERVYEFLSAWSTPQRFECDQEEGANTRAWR
Protocol: (§1) 10⁵ Jurkat NFAT-Luciferase transduced with an AFP (p26)-binding CAR (af03) were incubated with a total of 0.5 μg of Adapter proteins at various ratios of the BCMA- to CD123-specific Adapters (4° C. for 20 minutes), washed, and then incubated with CD123-Fc and biotinylated BCMA (0.5 μg of each) (4° C. for 20 minutes), washed, then binding detected with Anti-Fc A488 and Streptavidin-PE. FIG. 8A presents a flow cytometric analysis of CD123-binding and BCMA-binding to their respective target proteins, FIG. 8B provides a comparison of mean fluorescence intensity (MFI) of A488 MFI (CD123-binding, left axis) and PE MFI (BCMA-binding, right axis) flow cytometric data presented in FIG. 8A.
(§2) 10⁵ Jurkat NFAT-Luciferase transduced with a p26-binding CAR (af03, SEQ ID NO: 1092) were incubated with a total of […] of Adapters (SEQ ID NO: 1084, SEQ ID NO: 1085) at the indicated ratios at 4° C. for 20 minutes, washed, and then incubated with CD123-Fc and biotinylated BCMA (0.5 μg of each/(4° C. for 20 minutes), washed, then binding detected with Anti-Fc A488 and Streptavidin-PE. FIG. 8A presents a flow cytometric analysis of CD123-binding and BCMA-binding to their respective target proteins, FIG. 8B provides a comparison of mean fluorescence intensity (MFI) of A488 MFI (CD123-binding, left axis) and PE MFI (BCMA-binding, right axis) flow cytometric data presented in FIG. 8A.

biotinylated BCMA = target: T3, biotinylated BCMA (Homo sapiens (Human), UniProt Q02223 1-54, biotinylated); assay: flow cytometry, Adapter held on af03-CAR Jurkat cells, biotinylated BCMA detected with Streptavidin-PE
T3 sequence: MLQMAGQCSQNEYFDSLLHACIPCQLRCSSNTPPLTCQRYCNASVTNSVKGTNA
Protocol: as §1, §2

[1] = target: T4, BCMA on tumor cells (NCI-H929, U266, MM.1S, NALM6-BCMA) (Homo sapiens (Human), UniProt Q02223 1-184); assay: flow cytometry of NALM6-BCMA tumor cells flushed from femurs of mice after I.V. Adapter administration
T4 construct: also called BCMA+ tumor target
T4 sequence: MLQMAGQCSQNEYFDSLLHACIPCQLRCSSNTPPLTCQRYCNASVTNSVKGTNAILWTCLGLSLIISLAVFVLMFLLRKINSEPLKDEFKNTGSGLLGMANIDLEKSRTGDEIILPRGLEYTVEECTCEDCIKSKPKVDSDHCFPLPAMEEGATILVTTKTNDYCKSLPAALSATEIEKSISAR

T1 sequence (chain, as listed by the source): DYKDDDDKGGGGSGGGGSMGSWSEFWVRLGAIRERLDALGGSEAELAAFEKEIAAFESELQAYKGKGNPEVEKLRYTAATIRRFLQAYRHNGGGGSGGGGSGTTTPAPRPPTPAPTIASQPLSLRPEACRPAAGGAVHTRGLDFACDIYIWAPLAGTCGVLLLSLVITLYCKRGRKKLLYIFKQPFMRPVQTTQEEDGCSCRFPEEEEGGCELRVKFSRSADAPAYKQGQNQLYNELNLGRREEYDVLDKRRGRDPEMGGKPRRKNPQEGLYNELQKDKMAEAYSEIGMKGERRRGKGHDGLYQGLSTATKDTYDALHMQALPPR

B1: Cg06-BCMA Adapter (designed binder)
chain: DEMGSWDEFGRRLYAIEWRLYALGGSEAELAAFEKEIAAFESELQAYKGKGNPEVEKLREIAAVIRSNLQAYRHNGGGGSGGGGSGGGGSGMLQMAGQCSQNEYFDSLLHACIPCQLRCSSNTPPLTCQRYCNASVTNSVKGTNAGGGGSGGGGSGGGGSHHHHHHHHHH
notes: Soluble fusion: cg06 D domain, linker, BCMA extracellular domain, linker, HIS tag; also called CD123(cg06)-BCMS-HIS tag
binding result (BCMA-binding CAR (bc40)): binds

B2: cg06-p26 Adapter (designed binder)
chain: DEHHHHHHHHHHKLENLYFQGGGGGSMGSWDEFGRRLYAIEWRLYALGGSEAELAAFEKEIAAFESELQAYKGKGNPEVEKLREIAAVIRSNLQAYRHNGGGGSGGGGSGGGGSLEKCFQTENPLECQDKGEEELQKYIQESQALAKRSCGLFQKLGEYYLQNAFLVAYTKKAPQLTSSELMAITRKMAATAATCCQLSEDKLLACGEGAADIIIGHLCIRHEMTPVNPGVGQCCTSSYANRRPCFSSLVVDETYVPPAFSDDKFIFHKDLCQAQGVALQTMKQEFLINLVKQKPQITEEQLEAVIADFSGLLEKCCQGQEQEVCFAEEGQKLISKTRAALGV
notes: Soluble fusion: HIS tag, cg06 D domain, linker, p26; also called cg06-AFP (p26) Adapter; CD123 (cg06)-AFP (p26) Adapter
binding result (CD123-Fc): binds

B3: bc40-p26 Adapter (designed binder)
chain: DEHHHHHHHHHHKLENLYFQGGGGGSMGSWSEFWVRLGAIRERLDALGGSEAELAAFEKEIAAFESELQAYKGKGNPEVEKLRYTAATIRRFLQAYRHNGGGGSGGGGSGGGGSLEKCFQTENPLECQDKGEEELQKYIQESQALAKRSCGLFQKLGEYYLQNAFLVAYTKKAPQLTSSELMAITRKMAATAATCCQLSEDKLLACGEGAADIIIGHLCIRHEMTPVNPGVGQCCTSSYANRRPCFSSLVVDETYVPPAFSDDKFIFHKDLCQAQGVALQTMKQEFLINLVKQKPQITEEQLEAVIADFSGLLEKCCQGQEQEVCFAEEGQKLISKTRAALGV
notes: Soluble fusion: HIS tag, bc40 D domain, linker, full-length p26; also called bc40-AFP (p26) Adapter; HIS tag-BCMA(bc40)-p26
binding result (biotinylated BCMA): binds

B4: BCMA specific Adapter (bc98-p26-bc98) (designed binder)
chain: MGSWSEFWARLGAIRERLDALGGSEAELAAFEKEIAAFESELQAYKGKGNPEVEKLRYTAGTIKRFLQAYRHNGGGGDGGGGSGGGGSGLEKCFQTENPLECQDKGEEELQKYIQESQALAKRSCGLFQKLGEYYLQNAFLVAYTKKAPQLTSSELMAITRKMAATAATCCQLSEDKLLACGEGAADIIIGHLCIRHEMTPVNPGVGQCCTSSYANRRPCFSSLVVDETYVPPAFSDDKFIFHKDLCQAQGVALQTMKQEFLINLVKQKPQITEEQLEAVIADFSGLLEKCCQGQEQEVCFAEEGQKLISKTRAALGVGGGGSGGGGSGGGGSMGSWSEFWARLGAIRERLDALGGSEAELAAFEKEIAAFESELQAYKGKGNPEVEKLRYTAGTIKRFLQAYRHN
notes: also called SPRX-BCMA; sparX-BCMA
binding result [1]: binds

B5: α3D-BCMA Adapter (designed binder)
chain: DEGGGGSMGSWAEFKQRLAAIKTRLQALGGSEAELAAFEKEIAAFESELQAYKGKGNPEVEALRKEAAAIRDELQAYRHNGGGGSGGGGSGGGGSGMLQMAGQCSQNEYFDSLLHACIPCQLRCSSNTPPLTCQRYCNASVTNSVKGTNAGGGGSGGGGSGGGGSHHHHHHHHHH
notes: Soluble fusion: targetless α3D domain, linker, BCMA extracellular domain, HIS tag; also called none(α3D)-BCMA-HIS tag
binding result (BCMA-binding CAR (bc40)): binds
